Reference: the nanobody polyreactivity screen of Harvey et al. (2022)

Assay: yeast display, Sf9 membrane polyspecificity reagent, FACS + sequencing; frameworks hold sequencing errors
Procedure, shortened: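 A synthetic nanobody library was expressed on Saccharomyces cerevisiae BJ5465 by galactose induction for 36–48 hours. The library was stained for 1 hour at 4 °C with 10% biotinylated, detergent-solubilized Sf9 membrane reagent and enriched with streptavidin microbeads before FACS. Low and high (top ~1%) gates were set on anti-HA fluorescence for expression and streptavidin fluorescence for reagent binding, and each polyreactivity label reflects the gate of origin.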

In the case of “QVQLVESGGGIVQAGGSLRLSCAASGRTFLYNAMGWYRQAPGKERELVAAISKSGGSTYYADSVKGRFTISRDNAKNTVYLLMNSLKPEESAVYYCAKVGGYRGRPSFGDWGQGTQVTVSS”, the “polyreactivity (PSR sort gate)” value is reported as “high polyreactivity”.
With “QVQLVESGGGLVQAGGSLRLSCDASGFIIRRNAMGWYRQAPGKEREFVAAITWSGGSTYYADSVKGRFTISRDNAKNTVYLQMYSLKPEDTAVYYCAATYSQYWYTQYLNSYPGYDYWRQGTQVTVSS” the “polyreactivity (PSR sort gate)” value was “low polyreactivity”.
In the case of “QVQLVASGGGLVQAGGSLRLSCAASGSIFTHNALGWSRQAPGNERALVAAISSGGSTNYADSVKGRFTISRDNAKNTVYLQMNSLKPEDTAVYYCAKSIDGWYWRRRRYDYWGQGTQVTVSS”, the “polyreactivity (PSR sort gate)” value is reported as “low polyreactivity”.
With “QVQLVESGGGLVQAGGSLRLSCAASGRTFLVYAMGWYRQAPGKERELVATIRASTGSTYADSVKGRFTISRDNAKNTVYLQMNSLKPEDTAVYYCNAVHYFLYGYYSWGQGTQVTVSS” the “polyreactivity (PSR sort gate)” value was “high polyreactivity”.
For “QVQLVESGGGLVQAGGSLRLSCAASGFTFGVYTMGWYRQAPGKERELVAAITSGGSTHYADSVKGRFTISRDNAKNTVYLQMNSLKPEDTAVYYCAARVRPRPQRIYGYWGQGTQVTVSS”, the “polyreactivity (PSR sort gate)” value was “high polyreactivity”.
For “QVQLVESGGGLVQAGGSLRLICAASGSTFSINAMGRYRQAPGKERELVAAITTSVDSTYYADSVKGRFTISRDNAKNTVYLQMNSLIPEDTAVYYCAVAFVQFNQYDYWGQGTQVTVSS”, the “polyreactivity (PSR sort gate)” value was “low polyreactivity”.
For “QVQLVESGGGLVQAGGRLRLSCAASGSTFARNAMGWYRQAPGKERELVPAISRGGSTYYADSVKGRFTISRDNAKNTVYLEMNSLKPEDTAVYYCAVYNFHYGYVWYPYDYWGQGTEVTVSS”, the “polyreactivity (PSR sort gate)” value was “high polyreactivity”.
In the case of “QVQLVESGGGLVQAGGSLRLSCAASGSTFRFNAMGWYRQAPGKEREFVAAIRFTGGSTYYADSVKGRFTISRDNAKNTVYLQMNSLKPEDTAVYYCNNADEYSTVEYDYWGQGSQVTVSS”, the “polyreactivity (PSR sort gate)” value is reported as “low polyreactivity”.
In the case of “QVQLVESGGGLVHSGGSLRLSCAASGSIFRRNAMGWYIQAPGKERELVAAISASGGRTYADSVKGRFTISRDNAKNTVYLQMNSLKPEDTAVYYCAVRSYWRVDYWGQGTQVTVSS”, the “polyreactivity (PSR sort gate)” value is reported as “high polyreactivity”.
With “QVQLVESGGGLVQAGGSLRLSCAASRTIIASYAMGSYRQAPGKERELVAAISRSGGRTYYADSVKGRFTISRDNAQNTVYLQMNSLKPEDSAVYYCNVLQPQSSDWLITYDYWGQGTQVTVSS” the “polyreactivity (PSR sort gate)” value was “high polyreactivity”.
In the case of “QVQLVESGGGLVQAGGSLRLSCAASGYSFRLYAMGWYRQAPAKEWELVAAISKSGGSTYYADSVKGRFTISRDNANNTVYLQMNRLKPEETADYYCAADGVARYQKGQYDYWGQGTQVTVSS”, the “polyreactivity (PSR sort gate)” value is reported as “high polyreactivity”.
With “QVQLVESGGGLVQAGGSLRLSCSASGRTFTVNAMGWYRQAPGKERELVATITYGGGSTYYADSVKGRFTISRDNAKNTVYVQMNSLKREDTAVYYCYADYWAVNYDYWGQGTQVTVSS” the “polyreactivity (PSR sort gate)” value was “low polyreactivity”.
In the case of “QVQLVESGVGLVQAVVSLRISCAASGSNFNYYAMGWYRQAPGKERELVAAISGSGATTYYADSVKGRFTISRDNAKNTVYLQMNSLKPEDTAVYYCATTRRWYIGYDYWGQGTQVTVSS”, the “polyreactivity (PSR sort gate)” value is reported as “high polyreactivity”.
With “QVQLVESGGGLVQAGGSLRLSCAASGSIFQYYVMGWYRQAPGKERELVAAIRRSGTTYYADSVKGRFTISRDNAMITVYLQMNSLKPEVTAFYYCKKVRCQEPSNYDYWGQGTQVTVSS” the “polyreactivity (PSR sort gate)” value was “low polyreactivity”.
In the case of “QVQLVESGGGLVQAGGSLRLSCVPPDSSSLSMLWDGIDRRLGKKGSWLPVLTSRGVGTYYADSVKGRFTISRDNAKNTVYLQMNSLKPEDTAVYYCYARYEVFYRYDYWGQGTQVTVSS”, the “polyreactivity (PSR sort gate)” value is reported as “low polyreactivity”.
For “QVQLVESGGGLVQAGGSLRLSCAASGFTFSVYAMGWYRQAPGKERELVAAISDSGGRTYYADSVKGRFTISRDNEKNTVYLQMNSLKPEDSAVYYWKARPAGRGYNYWGQGTQVTVSS”, the “polyreactivity (PSR sort gate)” value was “high polyreactivity”.
For “QVQLVESGGGLVQAGGSLRLSCAASGIIFSYNFMGWYRQAPGKERELVAGISRSGGSTYYADSVKGRFTISRDNAKNTVYLQMNSLKPEDTAVYYCNTVERGQNRRPGDKARRYDWGQGTQVTVSS”, the “polyreactivity (PSR sort gate)” value was “high polyreactivity”.
In the case of “QVQLVESGGGLFQAGGSLRVSCAASGFTFVYYAMGWYRQAPGKERELVAAITASGGSTYYADSVQGRFTISRDNAKNTVYLQMNSLKPEDSADYYCNTVRYVRHYRQSGYWGQGTQVTVSS”, the “polyreactivity (PSR sort gate)” value is reported as “high polyreactivity”.
In the case of “QVQLGESGGGLLQAGGSLRLICAASGSIFSPYDMGWYRHAPGKERVLVAAITGSGASTYYADSVKGRFSISRDNAKNTVSLEMNSLKPEETAVYYCAAVSKYYTTWTSGYWGQGTQVTLSS”, the “polyreactivity (PSR sort gate)” value is reported as “low polyreactivity”.
For “QVQLVESGGGLVQAGGSLRLSCAASGLIFYRYAMGWYRQAPGKERELVAAISRRGGSTYYADSVKGRFTISRDNAKNTVYLQMNRLKAEETAVYYCAARLPGYYGIGDYWGQGTQVTVSS”, the “polyreactivity (PSR sort gate)” value was “high polyreactivity”.
In the case of “QVQLVESGGGLVQEGGSLRLSCAASGLTFFPYAMGWYRQAPGKERELVAAITTSDGTTYYADSVKGRFTISRDNAKNTVYLQMNSLKPEDTAVYYCAAVYSPRSVWWYDYWGQGTEVTVSS”, the “polyreactivity (PSR sort gate)” value is reported as “low polyreactivity”.
In the case of “QVQLVESGGGLVQAGGSLRLSCAASGRTFWRYAMGWYRQAPGKERELVAAITSGGGSTYYADSVKGRFTISRDNAKNTVSLQMNSLKPEDTAVYYCNRAGRGRSFKGDYWGQGTQVTVSS”, the “polyreactivity (PSR sort gate)” value is reported as “high polyreactivity”.
In the case of “QVQLVESGGGLVQAGGSLRLSCAASGSIFAVNTMGWYRQAPGKERELVAAISQRGSSTYYADSVKGRFTISRDNAKNTVYLKMNSMKPEDTAVFFCAKRFIYGLYNYWGQGTQVTVSS”, the “polyreactivity (PSR sort gate)” value is reported as “high polyreactivity”.
In the case of “QVQLVDSGGGLVQAGGSLRLSCAASGSTFRRYAMGWYRQAPGKERELVAAITTADITNYADSVKGRFTISRDNAKNTVYLQMNSLKPEDTAVYYCAAPVAYRGSRNFIYRYNYWGQGTQVTVSS”, the “polyreactivity (PSR sort gate)” value is reported as “high polyreactivity”.
For “QVQLVESGGGLVQAGGSLRLSCAASGSTYGDNAMGWYRQAPGKERELVAAISSGGGSTYYADSVKGRFTISRDNAKNTVYLQMYSLNPEDTAVYYCGADGTLTLYRYILDYWGQGYQVTVSS”, the “polyreactivity (PSR sort gate)” value was “low polyreactivity”.
With “QVQLVESGGGLVQAGGSLRLSCAASGLTLQGYVMGWSRQAPGKERELVAAISTGGSTHYADSVKGRFTISRDNAKNTVYLQMNSLKPEDTAVYYCAAGWVLWFRDPQGRASYYWGQGTQVTVSS” the “polyreactivity (PSR sort gate)” value was “high polyreactivity”.
In the case of “QVQLVESGGGLVQAGGSLRLSSAASGSIFYSYAMGWYRQAPGKERELVARMSSGGSTYYADSVKGRFTISRDNAKNSVYLQMNSLKPEDTAVYYCAAEALYYPYETYDYWGQGTQETVSS”, the “polyreactivity (PSR sort gate)” value is reported as “high polyreactivity”.
With “QVQLVESGGGLVQAVGSLRLSCAASGLIFDANAMGWYRQAPGKERELVAAISNGDSTYYADSVKGRLTISRDNAKNTVYLQMNSLKPEDTAVYYCNARIIYRKWLFRSGTFNYWGQGTQVTVSS” the “polyreactivity (PSR sort gate)” value was “low polyreactivity”.
With “QVQLVESGGGLVQAGGSLRLSCAASGSTFKRYAMGWYRQAPGKERELVASISSGGSTNYADSVKGRFTISRDNAKNTVYLQMNSLKREDTAVYYCAVSYRSFRYYWERYYSWGQGTQVTLSS” the “polyreactivity (PSR sort gate)” value was “high polyreactivity”.
For “QVQLVESGGGLFQAGGSLRLSCAASGGIFVDNAMGWYRQAPGKERELVAAISWSGGSTYYADSVKGRFTISRYHAKNTVYLQMNSLKPEDTAVYYCAKVYVEDEGYQWADYDYWGQGTQVTVSS”, the “polyreactivity (PSR sort gate)” value was “low polyreactivity”.
In the case of “QVQLVESGGGLVQAGGSLRLSCAASGITFNYYDMGWYRQEPWKARELVATINRSGGTTYYADSVKGRFTISRDTAKNTVYLQMNTMKPEDTAVYYCNALYSSRGRYHSGYDYWGQGTQVTVSS”, the “polyreactivity (PSR sort gate)” value is reported as “high polyreactivity”.
With “QVQLVESGGGLVQARGSLRLSSAASGSTFSYYAMGGYRQEHGTETQLVATISKRGGSTYYADSVKGRFTISRDNAKNTVYLQMNSLKPEDTAVYYCAAEFLVRYGYDYWGQGTQVTVSS” the “polyreactivity (PSR sort gate)” value was “high polyreactivity”.
With “QVQLVESGGGLVQAGGSLRLSCAASGRTFYSYAMGWYRQAPGKERDLVASITRAGSTYYADSVKGRFTISRDNAKNTVYLQMNSLKPEDTAVYYCAATYRSDRRYGSHYRVDYWGQGTQVTVSS” the “polyreactivity (PSR sort gate)” value was “high polyreactivity”.
For “QVQLVESGGGLVHAGGSLRLSCSASGSTLRFNAMGWYRQAPGKVREFVATITRRGGSTYYADSEKGRFTISRDNAKNTVYLQMNSLKPEDTAVYYCAADRGGYSVLGGYWGQGTQVTVSS”, the “polyreactivity (PSR sort gate)” value was “high polyreactivity”.
In the case of “QVQLVESGGGLVQAGCSLRLSCAASGSNFGMYTMGWYRQAPGKESELVAAISGGGGSTYYADSVKGRFTISRDTAKNTVYVQMNSLKPEDSAVYYCAAVLDLSEWYDYWGQGTQVTVSS”, the “polyreactivity (PSR sort gate)” value is reported as “low polyreactivity”.
In the case of “QVQLVESGGGLFQAGGSLRISSAPSGRTYYRNAMGWYRQAPGIERELVAAISWSGGRTYYADSVKGRFTISRDNAKNTVYLQMNSLKPEDSAVYYCAALFIYRSYAALSRYDYWGQGTQVTVSS”, the “polyreactivity (PSR sort gate)” value is reported as “high polyreactivity”.
For “QDQLVESGRGLVQAGGSLRLSCAASGRTFALNVMGWYRQAPGKERELVAAISRSGGSTYFADSVKGRFTISRDNAKNTVYIQMNSLKPEDTAVYSCAAATHYQSYKRRDYWGQGTQVTVSS”, the “polyreactivity (PSR sort gate)” value was “high polyreactivity”.
For “QVQLVESAGGLVQAGGSLRLSCAASGGTFSTYAIGWYRQAPGKEREFVAAITRSGTSTYYADSVKGRFTISRDNAKNTVYLQMNSLKPEDTAVYYCAAGVYSFRYDYWGQGTQVTVSS”, the “polyreactivity (PSR sort gate)” value was “low polyreactivity”.
For “QVQLVESGGGLVQAGGSLRLSCAASGITLGYYVMGCYRPAPGKERELVAAISSSGGRTYYADSVKGRFTISRDTAKNTVYLQMNCLKPEDTAVYYCAADVGRGIYDYWGQGNQVTVSS”, the “polyreactivity (PSR sort gate)” value was “low polyreactivity”.
For “QVQLVESGGGLVQAGGSLRLSCAASGRIWVNALGWYRQAPGKEREFVAAISTSSASTYYADSVKGRFTISRDNAKNTVYLQMNSLKPEDTAVYYCASRYLGKKYYWFKTMDYWGQGTQVTVSS”, the “polyreactivity (PSR sort gate)” value was “high polyreactivity”.
With “QVQLVESGGGLVQAGGSLRLSCAASGRIYSVYTMGWYRQAPGKERELVATISSGGRTNYADSVKGRFTISRDNAKNTVYLQMNSLKPEDTAVYYCAADWVYPPGLKDSVHFGEYDYWGQGTQVTVSS” the “polyreactivity (PSR sort gate)” value was “low polyreactivity”.
For “QVQLVESGGGLVQAGGSLRLSCAASGSTFSGNAMGWYRQAPGKERELVARIRWSTGSTYYADSVKGRFTISRDNAKNTVYLQMNSLKPEDTAVYYCNARGTPWRYGGDYWGQGTQVTVSS”, the “polyreactivity (PSR sort gate)” value was “low polyreactivity”.
In the case of “QVQLVESGGGLVQAGGSLRLSCAASGRTFKRNAKGWYRQAPGKERELVAAISGTGASTYYADSVKGRFTISRDNAKNTVYLQMNSLKPEDTAVYYCAKYRYISNPVYLGDYWGQGTQVTVSS”, the “polyreactivity (PSR sort gate)” value is reported as “high polyreactivity”.
